In this assay the target is T1, Tsr2-N (recombinant, binding assays) (S. cerevisiae (yeast), UniProt Q06672 1-152).
T1 chain: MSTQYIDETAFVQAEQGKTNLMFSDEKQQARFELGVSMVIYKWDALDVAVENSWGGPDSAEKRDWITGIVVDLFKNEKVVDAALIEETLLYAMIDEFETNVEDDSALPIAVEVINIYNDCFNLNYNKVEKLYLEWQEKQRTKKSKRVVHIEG
Briefly: ITC. (In general: Isothermal titration calorimetry measures the heat released or taken up as one component is titrated into another.)

What is called Kd is the concentration at which binding is half-saturated. With RPRFNRENKVSPADAAKKAL [ESS2 peptide], the dissociation constant (Kd) was 720 nM.

The values are drawn from paper PMC6131548 (2018).
